Test results: PMC9926122, “Kinetochore-microtubule attachment in human cells is regulated by the interaction of a conserved motif of Ska1 with EB1” (The Journal of Biological Chemistry, 2022)

B1: EB1-GST (natural protein, human, UniProt Q15691 1-268, looked up)
chain: MAVNVYSTSVTSDNLSRHDMLAWINESLQLNLTKIEQLCSGAAYCQFMDMLFPGSIALKKVKFQAKLEHEYIQNFKILQAGFKRMGVDKIIPVDKLVKGKFQDNFEFVQWFKKFFDANYDGKDYDPVAARQGQETAVAPSLVAPALNKPKKPLTSSSAAPQRPISTQRTAAAPKAGPGVVRKNPGVGNGDDEAAELMQQVNVLKLTVEDLEKERDFYFGKLRNIELICQENEGENDPVLQRIVDILYATDEGFVIPDEGGPQEEQEEY
notes: also called GST-tagged EB1; source: E. coli BL21 DE3, purified (Glutathione Sepharose)

What was measured:
Details in all cases: both partners purified
EB1-GST = biological target: B1; experiment: pull-down
6xHis-tagged WT Ska1 [1] = biological target: T1, 6xHis-tagged WT Ska1 (human, UniProt Q96BD8 1-255); experiment: pull-down; competition: EB1-GST preincubated with the SXIP peptide aptamer for 2 h, GSH beads added, then incubated with Ska1 WT protein; rising doses of peptide
T1 construct: WT Ska1 from the plasmid pEC-S-CDF-His Ska1; Probably whole Ska1 (1-255); also called 6xHis Ska1 WT; 6xHis-Ska1; source: E. coli BL21 DE3, purified (Ni2+-NTA)

6xHis-tagged WT Ska1 [2] = biological target: T1, 6xHis-tagged WT Ska1; experiment: high-speed atomic force microscopy (HS-AFM); proteins (10-30 nM; 10 nM in the frames shown) in BRB80 buffer (80 mM Pipes, 1 mM EGTA, 1 mM MgCl2, pH 6.9) on mica, tapping mode, 150 ms per frame; EB1 alone, Ska1 alone and their mixture

T1 sequence (Q96BD8 whole entry): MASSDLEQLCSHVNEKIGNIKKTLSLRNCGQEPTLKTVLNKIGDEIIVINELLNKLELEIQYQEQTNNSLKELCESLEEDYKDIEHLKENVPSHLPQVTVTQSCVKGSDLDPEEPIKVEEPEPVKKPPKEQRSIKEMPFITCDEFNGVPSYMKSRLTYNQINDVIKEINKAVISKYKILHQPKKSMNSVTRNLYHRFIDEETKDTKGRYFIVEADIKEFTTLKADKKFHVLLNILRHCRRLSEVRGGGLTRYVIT

In the case of ALNGQSRIPVLKRHTR [SXIP peptide aptamer], the “percent reduction of EB1-Ska1 association at 1:5 M ratio of EB1:peptide” value (EB1-GST) is reported as roughly 70%.

B1: binds (6xHis-tagged WT Ska1 [1]).

B2: recombinant EB1 (HS-AFM and microtubule experiments) (natural protein, human, UniProt Q15691 1-268, looked up)
chain: MAVNVYSTSVTSDNLSRHDMLAWINESLQLNLTKIEQLCSGAAYCQFMDMLFPGSIALKKVKFQAKLEHEYIQNFKILQAGFKRMGVDKIIPVDKLVKGKFQDNFEFVQWFKKFFDANYDGKDYDPVAARQGQETAVAPSLVAPALNKPKKPLTSSSAAPQRPISTQRTAAAPKAGPGVVRKNPGVGNGDDEAAELMQQVNVLKLTVEDLEKERDFYFGKLRNIELICQENEGENDPVLQRIVDILYATDEGFVIPDEGGPQEEQEEY
notes: recombinant EB1 with N-terminal calponin homology domains (EB1-N), linker and C-terminal dimer region (EB1-C) seen by HS-AFM; The only EB1 expression construct that the methods describe is GST-tagged EB1 in pGEX 5x3; also called EB1 dimer; source: recombinant
B2: binds (6xHis-tagged WT Ska1 [2]).
